This note sets out measurements from patent US20050019345A1 (published 2005).

The target in one experiment is BSA (bovine) (UniProt P02769). Description: enzyme-linked binding assay (ELISA format), non-conjugated HRPO on immobilized BSA.
The target in a further experiment is T1, human fibronectin (human, UniProt P02751 32-2477, limits assumed).
T1 construct: Bought, immobilized on plates
As to the kind of experiment: enzyme-linked binding assay (ELISA format), non-conjugated HRPO on immobilized matrix protein. (In general: In an ELISA, binding on a coated surface is turned into a signal by an enzyme label.)

For another experiment, the target named is human laminin (human). Described as above.
The target of the next experiment is T2, human collagen type I (human, UniProt P02452 162-1218; P08123 80-1119, limits assumed).
T2 construct: Bought (Gibco BRL), immobilized on plates; also called type I collagen; collagen type 1
T2 sequence (P02452 162-1218 limits assumed, chain 1 of 2): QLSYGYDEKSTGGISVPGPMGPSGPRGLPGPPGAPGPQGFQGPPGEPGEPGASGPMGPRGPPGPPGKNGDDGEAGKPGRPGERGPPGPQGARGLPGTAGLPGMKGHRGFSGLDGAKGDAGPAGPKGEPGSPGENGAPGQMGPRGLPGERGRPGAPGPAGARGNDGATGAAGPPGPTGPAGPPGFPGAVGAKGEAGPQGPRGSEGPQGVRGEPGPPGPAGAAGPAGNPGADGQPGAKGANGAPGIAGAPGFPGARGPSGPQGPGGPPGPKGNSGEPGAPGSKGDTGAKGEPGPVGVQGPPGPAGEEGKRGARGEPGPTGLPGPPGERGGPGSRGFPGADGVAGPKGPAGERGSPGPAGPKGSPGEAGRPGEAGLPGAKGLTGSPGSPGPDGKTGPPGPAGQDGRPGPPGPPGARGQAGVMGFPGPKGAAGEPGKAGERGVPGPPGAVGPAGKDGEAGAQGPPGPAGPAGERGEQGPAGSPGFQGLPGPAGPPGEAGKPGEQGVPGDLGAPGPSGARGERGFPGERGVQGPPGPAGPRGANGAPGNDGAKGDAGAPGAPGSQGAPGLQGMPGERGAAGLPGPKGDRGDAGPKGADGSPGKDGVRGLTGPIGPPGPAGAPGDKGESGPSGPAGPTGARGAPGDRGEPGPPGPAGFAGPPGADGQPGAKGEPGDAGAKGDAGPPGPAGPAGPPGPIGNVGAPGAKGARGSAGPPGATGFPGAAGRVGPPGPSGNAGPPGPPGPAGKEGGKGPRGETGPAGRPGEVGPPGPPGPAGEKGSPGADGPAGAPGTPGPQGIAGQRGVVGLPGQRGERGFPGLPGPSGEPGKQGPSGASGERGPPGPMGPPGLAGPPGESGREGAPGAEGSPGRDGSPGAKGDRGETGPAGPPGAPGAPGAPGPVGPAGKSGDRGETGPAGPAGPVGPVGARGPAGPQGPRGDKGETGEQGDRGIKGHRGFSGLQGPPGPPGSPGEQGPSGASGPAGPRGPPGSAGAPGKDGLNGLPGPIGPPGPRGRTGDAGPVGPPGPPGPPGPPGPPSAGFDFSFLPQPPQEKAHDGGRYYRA
T2 sequence (P08123 80-1119 limits assumed, chain 2 of 2): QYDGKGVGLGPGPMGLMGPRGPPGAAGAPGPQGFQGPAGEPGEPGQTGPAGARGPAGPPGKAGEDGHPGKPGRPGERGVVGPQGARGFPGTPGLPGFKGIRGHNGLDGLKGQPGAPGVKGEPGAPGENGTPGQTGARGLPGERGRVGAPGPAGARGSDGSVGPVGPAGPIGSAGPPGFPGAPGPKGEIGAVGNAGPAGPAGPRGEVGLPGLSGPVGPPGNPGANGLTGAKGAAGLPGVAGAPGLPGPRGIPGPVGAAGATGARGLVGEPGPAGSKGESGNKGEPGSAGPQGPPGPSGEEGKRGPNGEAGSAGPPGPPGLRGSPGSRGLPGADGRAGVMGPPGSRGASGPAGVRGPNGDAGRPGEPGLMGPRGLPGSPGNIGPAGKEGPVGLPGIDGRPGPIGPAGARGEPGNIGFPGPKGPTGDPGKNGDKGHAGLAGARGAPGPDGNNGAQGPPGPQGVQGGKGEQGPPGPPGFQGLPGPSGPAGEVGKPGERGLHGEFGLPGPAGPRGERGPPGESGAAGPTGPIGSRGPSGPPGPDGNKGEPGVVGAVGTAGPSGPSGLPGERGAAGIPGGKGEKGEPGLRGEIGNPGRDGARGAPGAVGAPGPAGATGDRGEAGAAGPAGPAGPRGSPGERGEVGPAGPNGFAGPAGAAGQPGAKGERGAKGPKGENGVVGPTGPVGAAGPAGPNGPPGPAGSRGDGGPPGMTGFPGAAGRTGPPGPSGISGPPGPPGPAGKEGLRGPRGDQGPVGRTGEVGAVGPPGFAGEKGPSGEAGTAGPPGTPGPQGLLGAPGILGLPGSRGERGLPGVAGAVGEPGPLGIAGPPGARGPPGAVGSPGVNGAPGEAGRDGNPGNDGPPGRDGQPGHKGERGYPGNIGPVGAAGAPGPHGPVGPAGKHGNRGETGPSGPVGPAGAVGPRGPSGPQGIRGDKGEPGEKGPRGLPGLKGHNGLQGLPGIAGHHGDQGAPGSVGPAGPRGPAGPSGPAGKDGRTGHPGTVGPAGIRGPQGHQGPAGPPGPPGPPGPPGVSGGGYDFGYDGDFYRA
The description is as above.

T1 sequence (P02751 32-2477 limits assumed): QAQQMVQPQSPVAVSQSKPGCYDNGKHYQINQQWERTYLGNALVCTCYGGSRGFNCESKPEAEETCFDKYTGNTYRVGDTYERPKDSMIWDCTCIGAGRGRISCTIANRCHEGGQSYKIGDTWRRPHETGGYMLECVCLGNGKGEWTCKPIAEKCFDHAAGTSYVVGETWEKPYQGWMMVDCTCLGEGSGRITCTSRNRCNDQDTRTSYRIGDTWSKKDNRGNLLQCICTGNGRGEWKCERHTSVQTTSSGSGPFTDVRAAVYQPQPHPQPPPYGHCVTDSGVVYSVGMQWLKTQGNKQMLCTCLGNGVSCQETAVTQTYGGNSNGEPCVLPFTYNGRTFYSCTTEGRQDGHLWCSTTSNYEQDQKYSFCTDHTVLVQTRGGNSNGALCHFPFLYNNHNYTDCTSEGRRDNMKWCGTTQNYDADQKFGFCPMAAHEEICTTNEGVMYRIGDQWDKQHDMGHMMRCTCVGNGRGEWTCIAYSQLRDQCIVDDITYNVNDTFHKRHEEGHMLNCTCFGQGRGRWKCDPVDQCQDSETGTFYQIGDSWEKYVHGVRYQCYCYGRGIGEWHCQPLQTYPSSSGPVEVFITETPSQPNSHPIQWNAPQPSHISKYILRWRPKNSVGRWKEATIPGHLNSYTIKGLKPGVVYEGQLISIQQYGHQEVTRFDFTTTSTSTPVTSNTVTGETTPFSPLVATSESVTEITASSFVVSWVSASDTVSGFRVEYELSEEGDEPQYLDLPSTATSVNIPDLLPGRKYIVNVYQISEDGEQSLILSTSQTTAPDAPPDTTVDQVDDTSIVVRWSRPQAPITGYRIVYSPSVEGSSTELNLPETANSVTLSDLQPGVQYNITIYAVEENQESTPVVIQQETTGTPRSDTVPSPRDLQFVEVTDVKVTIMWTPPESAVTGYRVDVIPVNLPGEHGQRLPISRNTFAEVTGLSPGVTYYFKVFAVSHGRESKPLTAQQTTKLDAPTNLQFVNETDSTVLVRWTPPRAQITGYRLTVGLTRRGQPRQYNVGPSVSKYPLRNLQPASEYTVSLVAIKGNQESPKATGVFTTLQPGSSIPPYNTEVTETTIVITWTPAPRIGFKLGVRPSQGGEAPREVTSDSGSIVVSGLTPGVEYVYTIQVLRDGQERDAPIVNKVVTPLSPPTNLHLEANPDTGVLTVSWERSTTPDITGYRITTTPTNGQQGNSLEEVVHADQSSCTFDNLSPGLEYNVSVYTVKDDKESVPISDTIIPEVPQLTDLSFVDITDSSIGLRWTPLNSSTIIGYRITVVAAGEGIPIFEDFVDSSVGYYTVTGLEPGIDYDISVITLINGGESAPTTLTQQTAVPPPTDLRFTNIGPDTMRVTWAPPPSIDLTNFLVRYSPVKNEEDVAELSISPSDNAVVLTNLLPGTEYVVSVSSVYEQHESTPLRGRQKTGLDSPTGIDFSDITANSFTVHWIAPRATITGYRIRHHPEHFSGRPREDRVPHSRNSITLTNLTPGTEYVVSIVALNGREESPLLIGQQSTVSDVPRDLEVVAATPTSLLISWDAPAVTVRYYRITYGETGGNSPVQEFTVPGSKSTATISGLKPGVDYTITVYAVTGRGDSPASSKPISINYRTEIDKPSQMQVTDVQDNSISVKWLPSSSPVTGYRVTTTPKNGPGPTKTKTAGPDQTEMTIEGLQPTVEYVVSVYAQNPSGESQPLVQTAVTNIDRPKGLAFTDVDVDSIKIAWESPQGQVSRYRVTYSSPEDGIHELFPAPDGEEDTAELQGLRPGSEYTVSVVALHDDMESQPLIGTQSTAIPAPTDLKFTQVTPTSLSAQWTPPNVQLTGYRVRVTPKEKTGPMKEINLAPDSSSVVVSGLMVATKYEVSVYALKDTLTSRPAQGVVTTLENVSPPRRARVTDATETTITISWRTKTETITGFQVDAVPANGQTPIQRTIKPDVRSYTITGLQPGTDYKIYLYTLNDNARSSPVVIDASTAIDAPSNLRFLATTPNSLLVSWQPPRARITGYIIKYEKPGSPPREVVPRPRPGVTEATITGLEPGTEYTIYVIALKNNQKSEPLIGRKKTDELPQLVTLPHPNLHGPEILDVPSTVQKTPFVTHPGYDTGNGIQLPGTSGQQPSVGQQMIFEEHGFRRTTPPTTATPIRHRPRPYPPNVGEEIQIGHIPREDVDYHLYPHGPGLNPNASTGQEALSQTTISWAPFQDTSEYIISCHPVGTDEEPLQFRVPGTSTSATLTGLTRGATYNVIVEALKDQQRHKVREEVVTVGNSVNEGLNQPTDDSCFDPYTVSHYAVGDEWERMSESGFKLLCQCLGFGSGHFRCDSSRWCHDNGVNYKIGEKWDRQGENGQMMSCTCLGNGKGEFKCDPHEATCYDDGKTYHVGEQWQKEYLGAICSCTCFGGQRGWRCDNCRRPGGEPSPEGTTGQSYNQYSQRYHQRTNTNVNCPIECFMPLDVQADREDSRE
Chain of BSA (bovine) (P02769 25-607 limits assumed): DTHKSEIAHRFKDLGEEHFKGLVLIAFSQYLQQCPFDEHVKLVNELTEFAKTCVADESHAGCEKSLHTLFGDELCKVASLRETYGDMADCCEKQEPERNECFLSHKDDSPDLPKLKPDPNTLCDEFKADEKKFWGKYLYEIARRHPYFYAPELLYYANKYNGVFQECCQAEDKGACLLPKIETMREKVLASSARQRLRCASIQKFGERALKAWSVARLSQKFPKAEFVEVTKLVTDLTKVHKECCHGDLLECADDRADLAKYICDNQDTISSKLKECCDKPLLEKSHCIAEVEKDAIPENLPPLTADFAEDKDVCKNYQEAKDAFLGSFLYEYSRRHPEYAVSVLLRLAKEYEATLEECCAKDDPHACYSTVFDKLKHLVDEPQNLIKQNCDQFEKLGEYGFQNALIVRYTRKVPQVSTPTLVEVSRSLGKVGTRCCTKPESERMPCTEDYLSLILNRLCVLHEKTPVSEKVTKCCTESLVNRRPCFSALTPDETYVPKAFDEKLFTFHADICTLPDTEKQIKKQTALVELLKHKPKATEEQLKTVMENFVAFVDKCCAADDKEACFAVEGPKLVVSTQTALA
Experimental for human collagen type I: (§1) After purification and labeling, it was subjected to an enzyme-linked binding assay with the Immobilized human matrix proteins, collagen type 1, fibronectin and laminin.
(§2) Peroxidase-labeled Cpa-maltose binding protein fusion and recombinant purified maltose-binding protein (for control of specific binding of the bacteria) were added to the wells for 2 h at room temperature. Non-conjugated peroxidase at a 1:300 dilution in PBS-T was used as a negative control. […] All assays were repeated on at least three independent occasions.
Experimental for human fibronectin: as §1, §2
Experimental for human laminin: as §1, §2

B1: non-conjugated horseradish peroxidase (enzyme, UniProt P00433 31-338, looked up)
chain: QLTPTFYDNSCPNVSNIVRDTIVNELRSDPRIAASILRLHFHDCFVNGCDASILLDNTTSFRTEKDAFGNANSARGFPVIDRMKAAVESACPRTVSCADLLTIAAQQSVTLAGGPSWRVPLGRRDSLQAFLDLANANLPAPFFTLPQLKDSFRNVGLNRSSDLVALSGGHTFGKNQCRFIMDRLYNFSNTGLPDPTLNTTYLQTLRGLCPLNGNLSALVDFDLRTPTIFDNKYYVNLEEQKGLIQSDQELFSSPNATDTIPLVRSFANSTQTFFNAFVEAMDRMGNITPLTGTQGQIRLNCRVVNSNS
notes: Negative control; also called HRPO; HRPO (negative control)
As to B1, the OD492 with BSA (bovine) amounted to 0.028 OD492; in the experiment with human fibronectin, 0.038 OD492; with human laminin it was 0.038 OD492; with human collagen type I, 0.049 OD492.
